Laboratory results: the supplement of paper PMC10567573
± gives the standard deviation.

Experiment: protein stability index of a GFP-peptide fusion (GPS, HEK-293T) (PSI 1-6); higher = more stable
[1] = treatment: DMSO, c terminus: a fixed tail appended
[2] = treatment: MLN4924 1 uM, 8 h, c terminus: a fixed tail appended
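Note: 24-mer peptide tiles fused after GFP, lentivirally expressed, FACS-sorted into six equal bins by GFP/DsRed ratio, decoded by Illumina sequencing, PSI is the read-weighted mean bin number.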

Row | Sequence | protein stability index [1] | protein stability index [2] | protein stability index (treatment: DMSO, c terminus: native) | protein stability index (treatment: MLN4924 1 uM, 8 h, c terminus: native)
1 | LNMRSTYAKLAAVAVFFIMLIVYV [SEC22B] | 3.14 ± 0.36 | 3.19 ± 0.23 | – | –
2 | SYWEDLRKQARQLENELDLKLVSF [GOSR1] | 2.37 ± 0.24 | 2.57 ± 0.2 | – | –
3 | PELRQLVLSLLSLEPAQRPPLSHI [NEK8] | 2.56 ± 0.41 | 2.47 ± 0.46 | – | –
4 | IKQDINSLNKQIAQLQDFVRAKGS [STX5] | 3.25 ± 0.12 | 3.38 ± 0.28 | – | –
5 | DFKDFYPAIADLFAESLQCKVDCE [P3H4] | 2.84 ± 0.4 | 3.16 ± 0.62 | – | –
6 | ASDMFRRLRDAGFRVTLWVHPFVN [MYORG] | 2.23 ± 0.17 | 2.13 ± 0.053 | – | –
7 | AKVGPGLPDGCQPLQLLREMRQAL [CBY2] | 2.73 ± 0.57 | 2.82 ± 0.33 | – | –
8 | EFQERARKRIRTYLKSCRRMKKNG [NOL4L] | 3.31 ± 0.19 | 3.19 ± 0.23 | – | –
9 | RGQCLLYNWEEERATNHLDQVPSM [SPAG8] | 3.13 ± 0.16 | 3.58 ± 0.42 | – | –
10 | FDALDDYEHHYHTLHGNVCSFCKR [ZNF511] | 3.83 ± 0.33 | 4.19 ± 0.41 | – | –
11 | IAHDGQRIYVLGGGTSWTAYSLNK [KLHDC10] | 2.13 ± 0.38 | 2.1 ± 0.066 | – | –
12 | PAEGEGRLGRCMRRLRDMVERPHS [KCNG1] | 4.17 ± 0.14 | 4.11 ± 0.35 | – | –
13 | FLVRLLMAMAVMLYYSNFVLALEE [MFSD9] | 2.85 ± 0.14 | 3.02 ± 0.21 | – | –
14 | MLGKYNTPVSYRMAKTLVFSKVKT [ACSBG2] | 2.46 ± 0.31 | 2.35 ± 0.23 | – | –
15 | EAVAGAEGREAPALVAAGGAPEDD [DENND6A] | 5.63 ± 0.16 | 5.74 ± 0.12 | – | –
16 | APVSRGRDSYGGPPRREPLPSRRD [RBMX] | 5.12 ± 0.21 | 4.93 ± 0.22 | – | –
17 | VSPRRIFANGHTYHINSISVNSDC [PPP2R2C] | 2.67 ± 0.27 | 2.87 ± 0.19 | – | –
18 | PSRGHAYRDYGHSRRDESYSRGYR [RBMY1A1] | 4.42 ± 0.13 | 4.34 ± 0.26 | – | –
19 | DFRVKYETELAMRQSVENDIHGLR [KRT18] | 3.56 ± 0.2 | 3.68 ± 0.1 | – | –
20 | NQHDTEMKYYIVHLKRHFMFRNHL [DYRK1B] | 2.45 ± 0.23 | 2.3 ± 0.15 | – | –
21 | LSANLHGGAVVANYPYDKSFEHRV [CPN1] | 3.46 ± 0.27 | 3.5 ± 0.28 | – | –
22 | QTALLESSCENKRADLVFIIDSSR [MATN2] | 3.05 ± 0.24 | 3.24 ± 0.28 | – | –
23 | GASVRGLHPVQKVILNYPSPWDQE [TRAF3IP2] | 3.79 ± 0.33 | 4.1 ± 0.36 | – | –

Row | Sequence | protein stability index [1] | protein stability index [2] | protein stability index (treatment: DMSO, c terminus: native) | protein stability index (treatment: MLN4924 1 uM, 8 h, c terminus: native)
24 | LTKASLKPRGCSKPPWRPPGGKL [SPACA9] | – | – | 2.55 ± 0.65 | 3.35 ± 1
25 | KKTWKILTIMPYNSAHHCVVEVEN [KLHL14] | 2.27 ± 0.37 | 2.64 ± 0.26 | – | –
26 | FQASNPYLPTRGGTTMASGGRFRC [TRIM55] | 2.54 ± 0.65 | 3.14 ± 0.7 | – | –
27 | LLSILPSLLGLLSFPRNNISYLVL [JAGN1] | 3.155 ± 0.027 | 3.1 ± 0.43 | – | –
28 | KRTYWPDLDAKIREALVLRSVRVR [PLD5] | 2.4 ± 0.36 | 2.77 ± 0.38 | – | –
29 | VVLTFITPMLNPLIYTLKNAEMKS [OR4A15] | 3.22 ± 0.073 | 2.99 ± 0.63 | – | –
30 | QSKTASDKSPSTVRDQGPSIPLTP [FBF1] | 5.07 ± 0.21 | 5.15 ± 0.099 | – | –
31 | YERLARILLQEIPIRSISLRSCYF [FBXO39] | 2.92 ± 0.28 | 2.56 ± 0.26 | – | –
32 | YDSQPQDVLGIRQLERPLPLTSVC [TRAF3IP2] | 3.68 ± 0.065 | 3.74 ± 0.23 | – | –
33 | NLSLVCLPRSEDDDCDDDDDDAQI [DRICH1] | 5.42 ± 0.28 | 5.5 ± 0.26 | – | –
34 | YALDMQQSNLEPLSPMTASSFLSF [FEM1A] | 2.6 ± 0.23 | 2.47 ± 0.085 | – | –
35 | CRSKTLGYQHVDLQNFSSSWSDGM [SMTNL2] | 2.47 ± 0.079 | 2.41 ± 0.27 | – | –
36 | MMHGGSYSLTTSSTHKRSSLRKVK [RAB40B] | 4.15 ± 0.25 | 4.35 ± 0.15 | – | –
37 | LPPVAVRSLQDLARIAIRGTIKKI [PCMTD2] | 3.2 ± 0.34 | 3.12 ± 0.22 | – | –
38 | AERYGLSGSDVLDNVAYARAFNTD [RAD51] | 3.99 ± 0.2 | 4.07 ± 0.32 | – | –
39 | CRDLVDEAKNYLLLPQERPLMQGP [KLHL20] | 2.65 ± 0.33 | 2.75 ± 0.12 | – | –
40 | LYYFRLAARSPQGLGASTAEISAR [PTPRD] | 2.34 ± 0.42 | 2.33 ± 0.39 | – | –
41 | TSTGFDRHTSPVFSPANPESSMED [BCL2L13] | 5.39 ± 0.28 | 5.16 ± 0.072 | – | –
42 | DMWSLGCILVEMHTGEPLFSGSNE [DYRK1B] | 1.97 ± 0.33 | 2.15 ± 0.23 | – | –
43 | PAAAPEGDWARLLEQMGALAVRGS [ZBED3] | 3.62 ± 0.3 | 3.59 ± 0.37 | – | –
44 | ADISQMLVCTADGDIHLSPEEPAA [TAF7L] | 4.93 ± 0.17 | 4.94 ± 0.077 | – | –
45 | QEILLAHRRFCELLPQEQRSVESS [CIB1] | 4.16 ± 0.15 | 4.32 ± 0.11 | – | –
46 | HLEKKGPQVRDWSHYFKIIEDLRA [KRT18] | 2.41 ± 0.13 | 2.69 ± 0.14 | – | –

Row | Sequence | protein stability index [1] | protein stability index [2] | protein stability index (treatment: DMSO, c terminus: native) | protein stability index (treatment: MLN4924 1 uM, 8 h, c terminus: native)
47 | ECGKAFSRSSILVQHQRVHTGEKP [ZNF24] | 3.78 ± 0.3 | 3.96 ± 0.14 | – | –
48 | SKKEGKRQGPKEPPRKSGSFHSSG [PBXIP1] | 4.98 ± 0.32 | 5.2 ± 0.2 | – | –
49 | ESLPHRLSCLGQQQQEPPLAMGTV [PLAGL1] | 3.92 ± 0.17 | 4.04 ± 0.26 | – | –
50 | IRDQMQQQLNDYEQLLDVKLALDM [LMNB1] | 3.4 ± 0.25 | 3.48 ± 0.36 | – | –
51 | MSQALKATFSGFKKEQRRLGIPKN [ETS2] | 2.98 ± 0.29 | 3.08 ± 0.3 | – | –
52 | ELDELQAAFEEFDTDRDGYISHRE [CABP4] | 5.26 ± 0.25 | 5.32 ± 0.15 | – | –
53 | DRAPAEQVPRSPVIKISYSTPQGK [PWWP2B] | 4.44 ± 0.29 | 4.52 ± 0.3 | – | –
54 | HILKARKVLTEPEVRYYLRQIVSG [PLK2] | 2.17 ± 0.53 | 2.33 ± 0.43 | – | –
55 | EKKRKEEEERRRREEEERERLQKE [ACBD3] | 5.45 ± 0.36 | 5.49 ± 0.25 | – | –
56 | QGTELWVAERGTTQGCHPAWEPRS [ZNF8] | 3.24 ± 0.16 | 3.1 ± 0.27 | – | –
57 | KGDRGLPLEGSAKGKVQAELSQPL [RBBP5] | 4.82 ± 0.33 | 4.75 ± 0.11 | – | –
58 | DLGEGKICFCCEEFQPAKCTDKEN [FAM189A2] | 4.24 ± 0.34 | 4.07 ± 0.085 | – | –
59 | FKDLNESLNALEDQDLDALMADLV [APBB1IP] | 3.19 ± 0.26 | 3.52 ± 0.26 | – | –
60 | FTGNFFYNYMMGIEFNPRIGKWFD [DHCR7] | 2.59 ± 0.57 | 2.21 ± 0.43 | – | –
61 | ADGSLRMDDPKGDFITLYQMASQS [M1AP] | 3.58 ± 0.083 | 3.53 ± 0.15 | – | –
62 | IMVGFILYCSTPTRTAEPAESSVP [SLC35F2] | 3.15 ± 0.68 | 2.62 ± 1 | – | –
63 | WCLRVNPKGLDDESKDYLSLYLLL [SPOPL] | 2.96 ± 0.41 | 3.08 ± 0.69 | – | –
64 | CGNIKAPSLQAWNDAPCDKTFLFI [CD207] | 2.72 ± 0.41 | 2.49 ± 0.55 | – | –
65 | EFEEATGEAGWGAGEGRLGHKRKQ [FOXJ1] | 5.26 ± 0.39 | 5.19 ± 0.5 | – | –
66 | PSTASLLLCPGGLDHKLNLRGKAW [TIAF1] | 2.69 ± 0.24 | 2.87 ± 0.24 | – | –
67 | EIAQYLLEKGADVNRKSVKGNTAL [FEM1C] | 2.58 ± 0.35 | 2.64 ± 0.3 | – | –
68 | NQHCLDTAFNFFKMAVSRHLTRGR [BRF1] | 2.19 ± 0.12 | 2.25 ± 0.22 | – | –
69 | GSRHPTLVLPLVPELLSTHPFFDT [INTS4] | 2.23 ± 0.28 | 2.31 ± 0.078 | – | –

Row | Sequence | protein stability index [1] | protein stability index [2] | protein stability index (treatment: DMSO, c terminus: native) | protein stability index (treatment: MLN4924 1 uM, 8 h, c terminus: native)
70 | GCFLLILGQIVLLPAEARERSRGR [MATN2] | 1.97 ± 0.083 | 2.31 ± 0.48 | – | –
71 | YSLLPQSTAPGLFLVSTHTGEVRT [PCDHGC5] | 3.07 ± 0.14 | 3.07 ± 0.29 | – | –
72 | DRLQVFHKRAIMPYGVYKKQQKDP [ATE1] | 3.17 ± 0.39 | 3.34 ± 0.22 | – | –
73 | VGRGEVVTVRVPTHEEGSYLFWEF [ACBD3] | 2.64 ± 0.44 | 2.34 ± 0.26 | – | –
74 | KDGVADSTVISSMPCLLMELRRDS [C18orf25] | 3.25 ± 0.15 | 3.42 ± 0.35 | – | –
75 | MAHGYGEESEEERGLEPGKGRHHR [CHGB] | 5.22 ± 0.27 | 5.34 ± 0.11 | – | –
76 | EDGMQCLQLKETLATQEPTDNQVR [DLC1] | 5.35 ± 0.13 | 5.5 ± 0.092 | – | –
77 | NFSQPVAGRPSLLRHDEVRTYFHE [NLN] | 3.36 ± 0.61 | 3.33 ± 0.31 | – | –
78 | TILLDGRRVKLQLWDTSGQGRFCT [RAB40B] | 2.28 ± 0.22 | 2.14 ± 0.13 | – | –
79 | PDARPHRRPHELLPVGGRLPGPTR [HAGHL] | 4.6 ± 0.14 | 4.57 ± 0.3 | – | –
80 | LQVAGLSEEQLQEPITGWRKTVCH [LPCAT4] | 3.29 ± 0.25 | 3.47 ± 0.12 | – | –
81 | CTAKCGERSVVTRDIRCSEDEKLC [ADAMTSL2] | 4.63 ± 0.38 | 4.61 ± 0.18 | – | –
82 | RTMAPEKLLKSMPILQGQIDALLE [SNAP91] | 2.83 ± 0.16 | 2.89 ± 0.27 | – | –
83 | LPQEHSQIYHCTKRKEEECSTTDH [TBX5] | 5.39 ± 0.21 | 5.49 ± 0.11 | – | –
84 | AVKDGLIVETLTVGCKGSKAGIEQ [ZMYND11] | 3.57 ± 0.14 | 3.48 ± 0.22 | – | –
85 | QPNTYADFEFLAFWQTQYNNMNAV [PKD2L1] | 2.21 ± 0.4 | 2.03 ± 0.24 | – | –
86 | EGGDESDLSSESSIKKKFLKRKGK [EHMT1] | 5.54 ± 0.22 | 5.34 ± 0.56 | – | –
87 | ERKNAEMYKLSSEQFHEAASKMES [CHCHD6] | 4.83 ± 0.27 | 5.08 ± 0.16 | – | –
88 | AGEFTGWEKVGSGGFGQVYKVRHV [RIPK4] | 2.46 ± 0.61 | 2.25 ± 0.29 | – | –
89 | LNDAKRELRFLLVYLHGDDHQDSD [FAF2] | 2.31 ± 0.36 | 2.23 ± 0.25 | – | –
